Several values for one entry are separate records, joined by “and”; a condition that tells them apart may be missing. Equal entries are not always repeated.
Tests used:
[1] = Human biodistribution and uptake in tumor lesions, PET/CT SUV; format: in vivo; settings: for ratio SUVmax to background, max / ratio SUVmax to background, mean / ratio SUVmax to background, min / ratio SUVmean to background, max / ratio SUVmean to background, mean / ratio SUVmean to background, min: human PET/CT, background gluteal muscle; for SUVmax mean, bladder / SUVmax mean, bloodpool / SUVmax mean, bone / SUVmax mean, duodenum / SUVmax mean, kidney / SUVmax mean, liver / SUVmax mean, lungs / SUVmax mean, pancreas / SUVmax mean, parotic gland / SUVmax mean, spleen / SUVmax mean, submandibular gland / SUVmean mean, duodenum / SUVmean mean, kidney / SUVmean mean, liver / SUVmean mean, lungs / SUVmean mean, pancreas / SUVmean mean, parotic gland / SUVmean mean, spleen / SUVmean mean, submandibular gland / SUVmax mean, background / SUVmean mean, background / SUVmean mean, bladder / SUVmean mean, bloodpool / SUVmean mean, bone / SUVmax mean, tumor / SUVmean mean, tumor: patients, PET/CT; for SUVmax mean, background / SUVmean mean, background: gluteal muscle; for SUVmean mean, bone: non-diseased bone
Experimental: Human biodistribution was estimated by analysing clinical ^18F-rhPSMA-7- and ^18F-rhPSMA-7.3-PET/CT exams in 47 and 32 patients, respectively.
The mean and maximum standardized uptake values (SUVmean/SUVmax) were determined for background (gluteal muscle), normal organs (salivary glands, blood pool, lung, liver, spleen, pancreas, duodenum, kidney, bladder, bone) and three representative tumor lesions. Tumor uptake was analyzed in 89 lesions (26 primary tumors/local recurrences, 23 bone, 38 lymph node and 2 visceral metastases) and 63 lesions (14 primary tumors/local recurrences, 30 bone, 18 lymph node and 1 visceral metastases) for ^18F-rhPSMA-7 and ^18F-rhPSMA-7.3, respectively.
Organ-background and Tumor-background ratios were calculated.

[2] = Octanol-water partition coefficient (n-octanol/PBS pH 7.4); format: physicochemical
Experimental: Approximately 1 MBq of the labeled tracer was dissolved in 1 mL of a 1:1 mixture (by volumes) of phosphate buffered saline (PBS, pH 7.4) and n-octanol in an Eppendorf tube. After vigorous mixing of the suspension for 3 minutes at room temperature, the vial was centrifuged at 15000 g for 3 minutes (Biofuge 15, Heraus Sepatech, Osterode, Germany) and 100 μL aliquots of both layers were measured in a gamma counter. The experiment was repeated at least six times.
Determianation of the logP values was carried out in phosphate buffered saline (PBS, pH 7.4) and n-octanol (=logPoct/PBS).

[3] = biological target: T1, HSA (Homo sapiens, UniProt P02768); assay: HSA binding on Chiralpak HSA column; format: in vitro ADME; settings: Chiralpak HSA column (50 × 3 mm, 5 μm), (n = 6)
T1 construct: purchased H13H-2433
Experimental: The mobile phase (A: NH4OAc, 50 mM in water, pH 7 and B: isopropanol) was freshly prepared for each experiment and only used for one day. The column was kept at room temperature and each run was stopped after detection of the signal to reduce the acquisition time. All substances were dissolved in a 0.5 mg/ml concentration in 50% 2-propanol and 50% 50 mM pH 6.9 ammonium acetate buffer. […] All nine reference substances were injected consecutively to establish a non-linear regression with Origin Pro 2016G.

[4] = Preclinical dosimetry in SCID mice, extrapolated to 70-kg Standard Adult (OLINDA/EXM 1.0); format: in vivo; settings: extrapolated from mice
Experimental: 3-5 mice were injected per timepoint with a mean 25.6±3.6 MBq of 18F-rhPSMA-7 and 28.5±4.8 MBq of 18F-rhPSMA-7.3, respectively. Mice, severe combined immunodeficiency (SCID) were used for the experiments.
Urine, blood, heart, lung, spleen, pancreas, liver, stomach (emptied), small intestine (emptied), large intestine (emptied), kidneys, bladder, testis, fat, muscle (partial, femoral), femur, tail and brain. Urine was collected with a pipette in the CO2 gas chamber. In case of missing urination in the chamber the bladder was aspirated with an insulin syringe. Blood was withdrawn instantly after sacrifice with an insulin syringe from the heart. All other tissues and organs were dissected and transferred directly in plastic containers.
The counting rates of measurement samples were automatically corrected for decay. The radioactivity distribution ratios (unit: percentage of the injected dose (% ID) in the measurement samples were determined using the equation below. The sum of the counting rates from all measurement samples obtained from one mouse was designated as the counting rate for administrated radioactivity.
For consistency of statistical calculations for each radiotracer the same number of time-points for ^18F-rhPSMA-7 and ^18F-rhPSMA-7.3 was used. Therefore, for ^18F-rhPSMA-7 the 10 min and 20 min time points were combined creating a 15 min endpoint.
In brief, to calculate a human dosimetry from the biodistribution in the mice, an extrapolation was necessary to account for the differences between the animals and humans. Normal-organ radiation doses were estimated for the 70-kg Standard Adult anatomic model using time-depending organ activity concentrations (in percent of the injected dose per gram, % ID/g) and total-body activities measured in the biodistribution studies in mice.
Tissue activity concentrations in mice were converted to tissue fractional activities in the 70-kg Standard Adult using the relative fractional organ masses in the Standard Adult and the “standard” 25-gramm mouse. Time-dependent total-body activity was fit to an exponential function and the difference between the injected activity and the total-body activity was assumed to be excreted to the urine because activity concentrations in the liver and GI tracer were low at all time points studied.
Organ residence time was calculated by numerical integration using the trapezoidal rule and the rest-of-body ^18F residence times was calculated as the difference between the total-body residence time and the sum of the organ and urine residence times. The bladder contents residence time was estimated using the dynamic voiding model in the OLINDA/EXM 1.0 dosimetry software. Finally, the Standard Adult mean organ dose equivalents (in mSv/MBq) and effective dose (also in mSv/MBq) were then calculated using OLINDA/EXM 1.0.

T1 sequence (P02768 25-609): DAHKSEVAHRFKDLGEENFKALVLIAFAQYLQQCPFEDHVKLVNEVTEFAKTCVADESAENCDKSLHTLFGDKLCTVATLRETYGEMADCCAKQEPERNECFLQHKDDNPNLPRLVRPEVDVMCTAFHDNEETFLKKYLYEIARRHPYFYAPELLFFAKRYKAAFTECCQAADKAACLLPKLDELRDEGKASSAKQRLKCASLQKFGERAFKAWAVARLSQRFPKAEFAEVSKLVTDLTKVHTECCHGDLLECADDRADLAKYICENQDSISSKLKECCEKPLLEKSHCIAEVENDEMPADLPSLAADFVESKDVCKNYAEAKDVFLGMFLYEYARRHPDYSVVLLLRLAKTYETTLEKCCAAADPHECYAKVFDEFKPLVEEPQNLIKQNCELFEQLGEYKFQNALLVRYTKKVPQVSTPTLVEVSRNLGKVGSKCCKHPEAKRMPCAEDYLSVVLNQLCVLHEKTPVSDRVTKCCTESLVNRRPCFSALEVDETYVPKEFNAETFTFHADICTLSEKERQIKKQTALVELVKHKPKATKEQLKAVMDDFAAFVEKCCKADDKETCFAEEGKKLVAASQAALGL

CC(C)(C)[Si](F)(c1ccc(C(=O)NC[C@@H](NC(=O)CC[C@@H](C(=O)O)N2CCN(CC(=O)O)CCN(CC(=O)O)CCN(CC(=O)O)CC2)C(=O)N[C@H](CCCCNC(=O)CCC(=O)NCCC[C@@H](NC(=O)CC[C@H](NC(=O)N[C@@H](CCC(=O)O)C(=O)O)C(=O)O)C(=O)O)C(=O)O)cc1)C(C)(C)C [rhPSMA7.3, [^19F][^natGa]D-Dap-S-DOTAGA-rhPSMA7, metal not drawn]
ratio SUVmax to background, max ([1]; bladder): 5.5 | ratio SUVmax to background, mean ([1]; bladder): 3.1 | ratio SUVmax to background, min ([1]; bladder): 0.9 | ratio SUVmean to background, max ([1]; bladder): 6.8 | ratio SUVmean to background, mean ([1]; bladder): 3.1 | ratio SUVmean to background, min ([1]; bladder): 0.9 | ratio SUVmax to background, max ([1]; bloodpool): 5.2 | ratio SUVmax to background, mean ([1]; bloodpool): 2.8 | ratio SUVmax to background, min ([1]; bloodpool): 1.5 | ratio SUVmean to background, max ([1]; bloodpool): 4.9 | ratio SUVmean to background, mean ([1]; bloodpool): 2.9 | ratio SUVmean to background, min ([1]; bloodpool): 1.7 | ratio SUVmax to background, max ([1]; bone): 3.2 | ratio SUVmax to background, mean ([1]; bone): 2.0 | ratio SUVmax to background, min ([1]; bone): 1.1 | ratio SUVmean to background, max ([1]; bone): 3.6 | ratio SUVmean to background, mean ([1]; bone): 2.1 | ratio SUVmean to background, min ([1]; bone): 1.0 | ratio SUVmax to background, max ([1]; duodenum): 34.3 | ratio SUVmax to background, mean ([1]; duodenum): 16.2 | ratio SUVmax to background, min ([1]; duodenum): 6.9 | ratio SUVmean to background, max ([1]; duodenum): 39.4 | ratio SUVmean to background, mean ([1]; duodenum): 17.1 | ratio SUVmean to background, min ([1]; duodenum): 4.7 | ratio SUVmax to background, max ([1]; kidney): 93.0 | ratio SUVmax to background, mean ([1]; kidney): 51.8 | ratio SUVmax to background, min ([1]; kidney): 25.7 | ratio SUVmean to background, max ([1]; kidney): 95.5 | ratio SUVmean to background, mean ([1]; kidney): 55.6 | ratio SUVmean to background, min ([1]; kidney): 27.6 | ratio SUVmax to background, max ([1]; liver): 19.0 | ratio SUVmax to background, mean ([1]; liver): 9.7 | ratio SUVmax to background, min ([1]; liver): 4.0 | ratio SUVmean to background, max ([1]; liver): 20.7 | ratio SUVmean to background, mean ([1]; liver): 11.4 | ratio SUVmean to background, min ([1]; liver): 4.1 | ratio SUVmax to background, max ([1]; lungs): 1.8 | ratio SUVmax to background, mean ([1]; lungs): 1.0 | ratio SUVmax to background, min ([1]; lungs): 0.6 | ratio SUVmean to background, max ([1]; lungs): 1.8 | ratio SUVmean to background, mean ([1]; lungs): 1.0 | ratio SUVmean to background, min ([1]; lungs): 0.6 | ratio SUVmax to background, max ([1]; pancreas): 6.9 | ratio SUVmax to background, mean ([1]; pancreas): 4.1 | ratio SUVmax to background, min ([1]; pancreas): 2.2 | ratio SUVmean to background, max ([1]; pancreas): 7.8 | ratio SUVmean to background, mean ([1]; pancreas): 4.4 | ratio SUVmean to background, min ([1]; pancreas): 2.3 | ratio SUVmax to background, max ([1]; parotid gland): 46.2 | ratio SUVmax to background, mean ([1]; parotid gland): 24.7 | ratio SUVmax to background, min ([1]; parotid gland): 11.9 | ratio SUVmean to background, max ([1]; parotid gland): 44.6 | ratio SUVmean to background, mean ([1]; parotid gland): 25.2 | ratio SUVmean to background, min ([1]; parotid gland): 12.4 | SUVmax mean, bladder [1]: 3.1 | SUVmax mean, bloodpool [1]: 2.8 | SUVmax mean, bone [1]: 2.1 | SUVmax mean, duodenum [1]: 16.4 | SUVmax mean, kidney [1]: 51.9 | SUVmax mean, liver [1]: 9.7 | SUVmax mean, lungs [1]: 1.1 | SUVmax mean, pancreas [1]: 4.2 | SUVmax mean, parotic gland [1]: 24.6 | SUVmax mean, spleen [1]: 11.4 | SUVmax mean, submandibular gland [1]: 28.4 | SUVmean mean, duodenum [1]: 11.0 | SUVmean mean, kidney [1]: 35.5 | SUVmean mean, liver [1]: 7.3 | SUVmean mean, lungs [1]: 0.7 | SUVmean mean, pancreas [1]: 2.8 | SUVmean mean, parotic gland [1]: 16.0 | SUVmean mean, spleen [1]: 8.5 | SUVmean mean, submandibular gland [1]: 19.6 | SUVmax mean, background [1]: 1.0 | SUVmean mean, background [1]: 0.7 | SUVmean mean, bladder ([1]; listed as 18F-rhPSMA-7.3): 2.0 and 2.0±0.8 | SUVmean mean, bloodpool ([1]; listed as 18F-rhPSMA-7.3): 1.9 and 1.8 | SUVmean mean, bone [1]: 1.3 | SUVmax mean, tumor ([1]; tumor lesions): 44.0 | SUVmean mean, tumor ([1]; tumor lesions, listed as 18F-rhPSMA-7.3): 32.5±42.7 and 32.5 | ratio SUVmax to background, max ([1]; spleen): 22.4 | ratio SUVmax to background, mean ([1]; spleen): 11.4 | ratio SUVmax to background, min ([1]; spleen): 3.6 | ratio SUVmean to background, max ([1]; spleen): 28.6 | ratio SUVmean to background, mean ([1]; spleen): 13.3 | ratio SUVmean to background, min ([1]; spleen): 3.9 | ratio SUVmax to background, max ([1]; submandibular gland): 62.1 | ratio SUVmax to background, mean ([1]; submandibular gland): 28.2 | ratio SUVmax to background, min ([1]; submandibular gland): 14.0 | ratio SUVmean to background, max ([1]; submandibular gland): 62.3 | ratio SUVmean to background, mean ([1]; submandibular gland): 30.6 | ratio SUVmean to background, min ([1]; submandibular gland): 15.7 | ratio SUVmax to background, max ([1]; tumor lesions): 321.2 | ratio SUVmax to background, mean ([1]; tumor lesions): 43.6 | ratio SUVmax to background, min ([1]; tumor lesions): 1.7 | ratio SUVmean to background, max ([1]; tumor lesions): 356.4 | ratio SUVmean to background, mean ([1]; tumor lesions): 50.8 | ratio SUVmean to background, min ([1]; tumor lesions): 1.8 | logP ([2]; n-octanol/PBS, pH 7.4, octanol/PBS7.4, mean of individual measurements, read-out: log P Mean): -3.26 | individual log P measurements ([2]; octanol/PBS7.4, single measurements): −3.02 and −3.06 and −3.07 and −2.86 and −3.39 and −3.33 and −3.34 and −3.20 and −3.40 and −3.41 and −3.48 and −3.49 and −3.32 and −3.45 and −3.53 and −3.43 and −3.56 and −3.03 and −3.08 | HSA Binding [3]: 96.9% | Effective Dose ([4]; 1.0 h bladder voiding interval): 1.28E−02 mSv/MBq | Effective Dose Equivalent ([4]; 1.0 h bladder voiding interval): 1.85E−02 mSv/MBq | Effective Dose ([4]; […] bladder voiding interval): 2.17E−02 mSv/MBq | Effective Dose Equivalent ([4]; […] bladder voiding interval): 2.94E−02 mSv/MBq

[^19F][^natGa]D/L-Dap-R/S-DOTAGA-rhPSMA7 [rhPSMA7-rac]
SUVmax mean, bladder [1]: 8.5 | SUVmax mean, bloodpool [1]: 2.4 | SUVmax mean, bone [1]: 1.7 | SUVmax mean, duodenum [1]: 14.8 | SUVmax mean, kidney [1]: 44.8 | SUVmax mean, liver [1]: 9.5 | SUVmax mean, lungs [1]: 1.1 | SUVmax mean, pancreas [1]: 3.7 | SUVmax mean, parotic gland [1]: 23.8 | SUVmax mean, spleen [1]: 11.8 | SUVmax mean, submandibular gland [1]: 27.0 | SUVmean mean, bloodpool [1]: 2.0 | SUVmean mean, duodenum [1]: 10.9 | SUVmean mean, kidney [1]: 32.4 | SUVmean mean, liver [1]: 7.0 | SUVmean mean, lungs [1]: 0.7 | SUVmean mean, pancreas [1]: 2.5 | SUVmean mean, parotic gland [1]: 16.9 | SUVmean mean, spleen [1]: 9.1 | SUVmean mean, submandibular gland [1]: 19.6 | SUVmax mean, background [1]: 1.0 | SUVmean mean, background [1]: 0.6 | SUVmean mean, bladder ([1]; listed as 18F-rhPSMA-7): 6.3 | SUVmean mean, bone [1]: 1.1 | SUVmax mean, tumor ([1]; tumor lesions): 27.6 | SUVmean mean, tumor ([1]; tumor lesions, listed as 18F-rhPSMA-7): 20.0±20.2 and 20.0 | HSA Binding [3]: 96.7% | Effective Dose ([4]; 1.0 h bladder voiding interval): 1.22E−02 mSv/MBq | Effective Dose Equivalent ([4]; 1.0 h bladder voiding interval): 1.82E−02 mSv/MBq | Effective Dose ([4]; […] bladder voiding interval): 2.66E−02 mSv/MBq | Effective Dose Equivalent ([4]; […] bladder voiding interval): 3.56E−02 mSv/MBq
